Measurements: US20040058357

Biological target: PKCβII (mouse brain homogenates), P68404
Sequence (P68404 other isoform, or with tags, fused parts or gaps): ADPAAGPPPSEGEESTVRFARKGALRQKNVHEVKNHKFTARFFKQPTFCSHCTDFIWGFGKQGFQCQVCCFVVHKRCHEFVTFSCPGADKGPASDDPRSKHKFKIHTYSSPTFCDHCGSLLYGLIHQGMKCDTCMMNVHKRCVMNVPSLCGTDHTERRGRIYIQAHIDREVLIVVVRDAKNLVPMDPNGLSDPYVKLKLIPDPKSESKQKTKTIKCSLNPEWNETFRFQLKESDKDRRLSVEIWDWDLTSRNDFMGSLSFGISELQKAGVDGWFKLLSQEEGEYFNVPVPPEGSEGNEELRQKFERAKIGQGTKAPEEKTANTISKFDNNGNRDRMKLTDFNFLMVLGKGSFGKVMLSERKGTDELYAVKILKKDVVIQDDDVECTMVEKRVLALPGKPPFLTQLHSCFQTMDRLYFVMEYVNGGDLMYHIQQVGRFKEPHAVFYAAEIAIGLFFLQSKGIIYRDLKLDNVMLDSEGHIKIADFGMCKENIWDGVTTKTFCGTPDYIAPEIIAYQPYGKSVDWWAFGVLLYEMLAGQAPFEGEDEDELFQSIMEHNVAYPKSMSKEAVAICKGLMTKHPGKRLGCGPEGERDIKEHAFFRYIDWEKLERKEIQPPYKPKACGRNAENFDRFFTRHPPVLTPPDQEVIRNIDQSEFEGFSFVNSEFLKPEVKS

B1: AChE-R overexpressed in AChE-R transgenic mice (protein)
chain: EGREDAELLVTVRGGRLRGIRLKTPGGPVSAFLGIPFAEPPMGPRRFLPPEPKQPWSGVVDATTFQSVCYQYVDTLYPGFEGTEMWNPNRELSEDCLYLNVWTPYPRPTSPTPVLVWIYGGGFYSGASSLDVYDGRFLVQAERTVLVSMNYRVGAFGFLALPGSREAPGNVGLLDQRLALQWVQENVAAFGGDPTSVTLFGESAGAASVGMHLLSPPSRGLFHRAVLQSGAPNGPWATVGMGEARRRATQLAHLVGCPPGGTGGNDTELVACLRTRPAQVLVNHEWHVLPQESVFRFSFVPVVDGDFLSDTPEALINAGDFHGLQVLVGVVKDEGSYFLVYGAPGFSKDNESLISRAEFLAGVRVGVPQVSDLAAEAVVLHYTDWLHPEDPARLREALSDVVGDHNVVCPVAQLAGRLAAQGARVYAYVFEHRASTLSWPLWMGVPHGYEIEFIFGIPLDPSRNYTAEEKIFAQRLMRYWANFARTGDPNEPRDPKAPQWPPYTAGAQQYVSLDLRPLEVRRGLRAQACAFWNRFLPKLLSATGMQGPAGSAGRRGVGARQCNPSLLPLASE
Which “PKC activity in brain homogenates (PKC assay kit, Upstate Biotechnology)” value does the source give for B1 here?
Its value is “Note the elevation of PKC activity in the different brain regions in the AChE-R transgenics as compered to FVB/N controls”.
